Reference: article PMC9082315 (Frontiers in Immunology, 2022)

B1: Nb 1.26, monomeric nanobody (VHH)
VHH: QVQLVESGGGLVQAGGSLRLSCAATGYTWSSVCMGWFRQAPGKEREGVAGIPSGRNRPYYADSVKGRFTISQDNAKNAVFLLMNSLKPEDTAIYYCAPCSAPHDPEYNYWGQGTQVTVSS
B2: Nb 1.29, monomeric nanobody (VHH)
VHH: QVQLVESGGGSVQAGGSLRLSCAASGYTINTDAVAWFRQAPGKGDERVAVIYTGSGNTNYADSVKGRFTISQDNAKNTVYLQMNSLKPEDTALYYCASGYYGASGYDFNNWGQGTQVTVSS
B3: 2.20 Nb (VHH)
VHH: QVQLVESGGGSVQAGGSLRLSCAASGYTYNNYYMGWFRQAPGKEREGVAAINSDGLDTYVADSVKGRFTISRDNAKDTVHLQMNSLKPEDTAIYSCATGRTVYYSGYDFRLSVDDYWGQGTQVTVSS
B4: 1.26 Nb (VHH)
VHH: B1 VHH
B5: 1.10 Nb (VHH)
VHH: QVQLVESGGGSVQAGGSLRLSCAASGYTYSTCRKGWYRQAPGKERELVASITADGATYYLDSVKGRLTISQDNAKNTVYLQMNSLKPEDTAVYYCAASVKDFTCTFNSWGQGTQVTVSS
B6: 1.29 Nb (VHH)
VHH: B2 VHH
B7: Nb 1.28 displayed on E. coli as intimin-Nb-myc tag fusion (VHH)
VHH: QVQLVESGGGSVQAGGSLRLSCAASGLTNIRCHMAWYRQAPGKGRELVSRITTNGVTDYADSVKERFTISRHNAENTVYLQMNSLKPEDTAVYYCAACGFSTTTYWGQGTQVTVSS
B8: Nb 2.15 displayed on E. coli as intimin-Nb-myc tag fusion (VHH)
VHH: QVQLVESGGGSVQAGGSLKLSCAASGYASWARKCIGWFRQAPGQEREGVAAIFDFDGSTYYSDSVKGRFTISGDNAKNTVSLQMNSLLPKDTAVYYCTVAFGTCDNWYRGRGDYWGQGTQVTVSS
B9: Nb 2.20 displayed on E. coli as intimin-Nb-myc tag fusion (VHH)
VHH: B3 VHH
B10: Nb 2.11 displayed on E. coli as intimin-Nb-myc tag fusion (VHH)
VHH: QVQLVESGGGSVQAGGSLRLSCAASGDASNRKCVSWFRRAPGKEREGVALIFPVGSSTAYADSVKGRFTISQDSAKDTVYLQMNNLKPEDSGTYYCAAVSWGGRCNLETQTVTFWGQGTQVTVSS
B11: Nb 2.1 displayed on E. coli as intimin-Nb-myc tag fusion (VHH)
VHH: QVQLVESGGGSVQAGGSLRLSCAAFGATISSAHMGWFRQAPGKEREGVAFRYTDGSSTYYTTSVRGRFTISQDNAKNTVYLQMNSLKPEDTAMYYCASNPSWGRLVGGQYNNWGQGTQITVSS
B12: Nb 1.26 displayed on E. coli as intimin-Nb-myc tag fusion (VHH)
VHH: B1 VHH
B13: Nb 1.10 displayed on E. coli as intimin-Nb-myc tag fusion (VHH)
VHH: B5 VHH
B14: Nb 1.16 displayed on E. coli as intimin-Nb-myc tag fusion (VHH)
VHH: QVQLVESGGGSVQAGGSLRLSCAASGNTSKRKCVGWFRRAPGKEREGVTLIYTVGGSTVYADSVKGRFTISQDNAKDTVYLQMNSLKPEDSAMYYCAAESWGRQCNLETHRFTFWGQGTQVTVSS
B15: Nb 1.29 displayed on E. coli as intimin-Nb-myc tag fusion (VHH)
VHH: B2 VHH

These binders were tested against monomeric SARS-CoV-2 RBD (S residues 332-534) with Flag peptide and 8xHis-tag (SARS-CoV-2, WA1 (Wuhan-like), UniProt P0DTC2, biotin (only in the flow cytometry on bacteria)) (assay: SPR). Details: both partners purified.

Binder | Kd [nM]
B1 | ~0.3
B2 | 13

Each binder was assayed against monomeric SARS-CoV-2 RBD with Flag peptide and 8xHis-tag (RBD-FH) (SARS-CoV-2, WA1 (Wuhan-like), UniProt P0DTC2) (assay: SPR). Details: both partners purified.

Binder | Kd [nM] | koff [s⁻¹] | kon [M⁻¹ s⁻¹]
B3 | 0.77 | 0.00101 | 1.3e+06
B4 | 0.26 | 0.000624 | 2.44e+06
B5 | 3.96 | 0.00137 | 345000
B6 | 12.9 | 0.00614 | 476000

What follows are binders tested against T1, human fibrinogen (control antigen) (Homo sapiens, UniProt P02671;P02675;P02679-2, biotin | biotin | biotin) (assay: flow cytometry on cells). Details: one partner purified.
T1 construct: also called human fribrinogen
T1 sequence (P02671 36-866, chain 1 of 3): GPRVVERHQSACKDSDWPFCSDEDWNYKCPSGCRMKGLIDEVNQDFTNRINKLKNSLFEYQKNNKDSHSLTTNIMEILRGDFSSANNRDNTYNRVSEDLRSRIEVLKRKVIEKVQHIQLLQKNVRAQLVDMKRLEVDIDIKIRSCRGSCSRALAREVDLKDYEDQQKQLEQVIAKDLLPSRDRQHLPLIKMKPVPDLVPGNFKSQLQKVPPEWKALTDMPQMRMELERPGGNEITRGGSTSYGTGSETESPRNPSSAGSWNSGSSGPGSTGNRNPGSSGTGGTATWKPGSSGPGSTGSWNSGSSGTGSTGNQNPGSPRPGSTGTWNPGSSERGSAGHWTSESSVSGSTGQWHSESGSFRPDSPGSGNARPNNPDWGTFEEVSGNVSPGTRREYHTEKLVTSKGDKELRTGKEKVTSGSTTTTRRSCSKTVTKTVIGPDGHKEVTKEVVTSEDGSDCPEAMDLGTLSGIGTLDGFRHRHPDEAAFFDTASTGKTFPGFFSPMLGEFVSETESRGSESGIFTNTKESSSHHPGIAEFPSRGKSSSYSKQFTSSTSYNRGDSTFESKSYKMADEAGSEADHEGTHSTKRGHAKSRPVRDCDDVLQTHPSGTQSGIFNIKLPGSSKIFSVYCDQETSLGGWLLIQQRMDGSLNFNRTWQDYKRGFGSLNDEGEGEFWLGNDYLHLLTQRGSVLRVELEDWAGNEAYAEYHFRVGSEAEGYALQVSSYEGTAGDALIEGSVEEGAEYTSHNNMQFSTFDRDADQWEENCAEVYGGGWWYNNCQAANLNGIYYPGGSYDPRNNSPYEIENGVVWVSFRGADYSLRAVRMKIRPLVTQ
T1 sequence (P02675 45-491, chain 2 of 3): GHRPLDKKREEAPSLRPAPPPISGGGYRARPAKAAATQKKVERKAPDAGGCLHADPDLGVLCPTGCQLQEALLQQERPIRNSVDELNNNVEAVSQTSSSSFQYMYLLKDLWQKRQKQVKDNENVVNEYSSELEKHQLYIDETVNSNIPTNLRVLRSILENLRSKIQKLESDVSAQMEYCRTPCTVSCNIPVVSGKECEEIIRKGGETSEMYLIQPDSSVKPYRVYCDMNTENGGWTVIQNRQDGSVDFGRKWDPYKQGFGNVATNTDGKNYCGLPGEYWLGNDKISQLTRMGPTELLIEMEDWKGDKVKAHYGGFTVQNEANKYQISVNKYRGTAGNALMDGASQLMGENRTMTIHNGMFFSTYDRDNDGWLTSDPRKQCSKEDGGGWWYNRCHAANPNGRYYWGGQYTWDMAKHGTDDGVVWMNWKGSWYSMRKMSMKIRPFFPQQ
T1 sequence (P02679 27-453, chain 3 of 3): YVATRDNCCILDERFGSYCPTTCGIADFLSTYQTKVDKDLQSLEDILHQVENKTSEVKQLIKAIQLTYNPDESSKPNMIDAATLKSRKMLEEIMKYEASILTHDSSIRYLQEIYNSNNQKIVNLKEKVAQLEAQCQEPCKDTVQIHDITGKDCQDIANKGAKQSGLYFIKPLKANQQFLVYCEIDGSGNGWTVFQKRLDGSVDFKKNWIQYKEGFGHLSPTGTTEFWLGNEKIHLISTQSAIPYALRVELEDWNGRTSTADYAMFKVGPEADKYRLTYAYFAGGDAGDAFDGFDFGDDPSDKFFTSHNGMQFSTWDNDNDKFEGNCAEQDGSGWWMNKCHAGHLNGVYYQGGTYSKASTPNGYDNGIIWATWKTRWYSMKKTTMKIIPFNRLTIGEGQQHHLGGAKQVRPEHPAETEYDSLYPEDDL

Binder | binding result
B7 | no binding (tested: 100 nM)
B8 | no binding (tested: 100 nM)
B9 | no binding (tested: 100 nM)
B10 | no binding (tested: 100 nM)
B11 | no binding (tested: 100 nM)
B12 | no binding (tested: 100 nM)
B13 | no binding (tested: 100 nM)
B14 | no binding (tested: 100 nM)
B15 | no binding (tested: 100 nM)
